PMC6358617

What follows are sequences tested on rituximab (MabThera, lot N7075B10) (assay: SAW). Conditions: 20 mM Tris-HCl pH 7.6, 100 mM NaCl, 2 mM MgCl2, 5 mM KCl, 1 mM CaCl2, 0.02% Tween 20; SAW at 22 C (protein A chip-captured rituximab); ELASA at room ….

“CGGCGGGGGGAGGATTGTGGTCTGCTCATGGCTGCCGTTT [RA1]” and “CGTGGGTGGGGATTGTGGTTTGGCTGATGGGGTGCTGGTT [RA6]” are within 1.5-fold of each other in Kd: 683 nM for the first, 887 nM for the second.

Compared with “GGGGGTGAGGATTGTGGTTTGGCTTATTGGTTTGCTGGTG [RA3]”, “TATACTGGGCCGTGCGTGACTTTTCCGTGCTGCATGAGAG [RA4]” is 2-fold lower in Kd: 713 nM for the first, 354 nM for the second. The second binds more tightly here.

“TGGGGGTAGGATTGTGGTTGGCTTTAATTGCTTTGGTGGT [RA2]” was tested, and the Kd was 394 nM.
